Consider five compounds from US12428656B2, “Nitrilase mutant and application thereof in the synthesis of 1-cyanocyclohexyl acetic acid” (priority 2020, dated 2025).

Data set [1] addresses Acidovorax facilis CCTCC NO: M 209044 nitrilase AcN-F168V (SEQ ID No. 2) mutant G180D/A205C, SEQ ID No. 10 (Acidovorax facilis, UniProt Q1W2L4). Description: Kinetic parameters of the nitrilase double mutant G180D/A205C. Type of data set: biochemical. The note with it: pH 7.0, 20 mM phosphate buffer, 45° C. The procedure:
(§1) The kinetic parameters of the purified protein in example 3 were determined, using 1-cyanocyclohexylacetonitrile as the substrate and the pure enzyme solutions of AcN-F168V, G180D, A205C, G180F, and G180D/A205C as the catalyst.
(§2) 10 mL of the reaction system was as follows: the purified enzyme solution (165 U/g) was diluted 10 times with a pH 7.0, 20 mM phosphate buffer and the final concentration of the purified nitrilase was 0.2 mg/mL. The resulting enzyme solution was put into a reaction container, added with the substrate at final concentrations of 6.75-40.49 mM (6.75, 13.50, 20.24, 26.99, 33.74 and 40.49 mM, respectively) and added with a pH 7.0, 20 mM phosphate buffer as the reaction medium up to 10 mL, the reaction solution was reacted at 45° C. and 600 rpm for 5 min, 500 μL of the sample was taken out, 500 μL of 2 M HCl was added to terminate the reaction, and the concentration of 1-cyanocyclohexyl acetic acid in the reaction solution was determined by HPLC (The detection and analysis conditions are the same as that in example 4).
(§3) Collected test data was used to conduct nonlinear fitting by Origin, thereby obtaining the Km value and Kcat value of the nitrilase E. coli BL21 (DE3)/pET-28b (+)-AcN-F168V and its combinatorial mutants E. coli BL21 (DE3)/pET-28b (+)-AcN-G180D, E. coli BL21 (DE3)/pET-28b (+)-AcN-G180F, E. coli BL21 (DE3)/pET-28b (+)-AcN-A205C and E. coli BL21 (DE3)/pET-28b (+)-AcN-G180D/A205C as shown in table 2.

Data set [2] concerns N#CCC1(C#N)CCCCC1. The experiment in a line: Kinetic parameters of the nitrilase mutant A205C. The note with it: other: A205C, pH 7.0, 20 mM phosphate buffer, 45° C., 6.75-40.49 mM substrate. Type of data set: biochemical, Acidovorax facilis CCTCC NO: M 209044. The procedure: as §1, §2, §3
In data set [3] the test system is N#CCC1(C#N)CCCCC1. Description: Kinetic parameters of the nitrilase, purified AcN-F168V (parent). Type of data set: biochemical, Acidovorax facilis CCTCC NO: M 209044. The note with it: other: AcN-F168V, pH 7.0, 20 mM phosphate buffer, 45° C., 6.75-40.49 mM substrate. How it is done: as §1, §2, §3
Data set [4] has as its system N#CCC1(C#N)CCCCC1. The experiment in a line: Kinetic parameters of the nitrilase mutant G180F. Type of data set: biochemical, Acidovorax facilis CCTCC NO: M 209044. Particulars: other: G180F, pH 7.0, 20 mM phosphate buffer, 45° C., 6.75-40.49 mM substrate. The procedure: as §1, §2, §3
For data set [5], the system named is N#CCC1(C#N)CCCCC1. The experiment in a line: Kinetic parameters of the nitrilase mutant G180D. Type of data set: biochemical, Acidovorax facilis CCTCC NO: M 209044. Particulars: other: G180D, pH 7.0, 20 mM phosphate buffer, 45° C., 6.75-40.49 mM substrate. The procedure: as §1, §2, §3

Consider `N#CCC1(C#N)CCCCC1` [1-cyanocyclohexylacetonitrile], for which, in data set [1], the Kcat was found to be 24139 s⁻¹, the Kcat/Km was determined as 1228.45 mM⁻¹ h⁻¹ and the Vmax came to 4.78 ± 0.73 mmolmg^−1min^−1. Also, the Km in data set [1] (6.75-40.49 mM substrate) is 19.7 ± 7.4 mM.
Regarding “Acidovorax facilis CCTCC NO: M 209044 nitrilase AcN-F168V (SEQ ID No. 2) mutant A205C, SEQ ID No. 8 (Acidovorax facilis; A205C/F168V)”, in the data set with N#CCC1(C#N)CCCCC1 [2], the Km was 3.40 ± 0.78 mM, the Vmax came out at 1630 µmol/min/mg and the kcat came to 8317 s⁻¹.
Take “Acidovorax facilis CCTCC NO: M 209044 nitrilase AcN-F168V, SEQ ID No. 2 (Acidovorax facilis; F168V)”: in the data set with N#CCC1(C#N)CCCCC1 [3], the Km was 16.25 ± 5.37 mM, the Vmax was determined as 1530 µmol/min/mg and the kcat amounted to 5573 s⁻¹.
For “Acidovorax facilis CCTCC NO: M 209044 nitrilase AcN-F168V (SEQ ID No. 2) mutant G180F, SEQ ID No. 6 (Acidovorax facilis; F168V/G180F)”, in the data set with N#CCC1(C#N)CCCCC1 [4], the Km was 5.88 ± 1.58 mM, the Vmax was 2350 µmol/min/mg and the kcat was 7612 s⁻¹.
On to “Acidovorax facilis CCTCC NO: M 209044 nitrilase AcN-F168V (SEQ ID No. 2) mutant G180D, SEQ ID No. 4 (Acidovorax facilis; F168V/G180D)”, for which, in the data set with N#CCC1(C#N)CCCCC1 [5], the Km came to 3.21 ± 1.41 mM, the Vmax stood at 1980 µmol/min/mg and the kcat is 6624 s⁻¹.
